The nanobody polyreactivity screen of Harvey et al. (2022)

Test: yeast display, Sf9 membrane polyspecificity reagent, FACS + sequencing; frameworks hold sequencing errors
Procedure, shortened: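 After 36–48 hours of galactose induction, yeast (Saccharomyces cerevisiae BJ5465) displaying a synthetic nanobody library were stained at 4 °C for 1 hour with 10% biotinylated, detergent-solubilized Sf9 membrane reagent. Streptavidin microbeads enriched the stained cells before FACS sorting into low and high (top ~1%) gates on anti-HA and streptavidin fluorescence. Each clone's polyreactivity label reflects its gate of origin.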

Sequence	polyreactivity (PSR sort gate)
QVQLVESGGGLVQAGGSLRLSCAASGFTFRSYTMGWYIQAPGKERELVATITWNGGSTYYADSVKGRFTISRDNAKNTVYLQMNSLKPEDTAVYYCAADPPWNFWNYYRMDYWGQGTQVTVSS	low polyreactivity
QVQLVESGGGLVQAGGSLRLSCAASGFTFRVNAMGWYRQAPGKERELVAAISSGGSTNYADSVKGRFTISRDNAKNTVYLQMNSLNPEDNAVYYCAKRFKYIYYWGQGTQVTVSS	high polyreactivity
QVQLVESGGGLVQAGGSLRLSCAASGFTFRVNAMGWYRQAPGKERELVAVISHSGGSTYYADSVKGRFTISRDNAKNTVYLQMNSLKPEDTAVYYCAKDRVVLYKYYRVDYWGQGTQVTVSS	low polyreactivity
QVQLVESGGGLVQAGGSLRLSCAASGFTFRVYAMGWYRQAPGKERELVAAITKRGGSTYYADSVKGRFTISRDNAKNTVYLQMNSLKPEDTAVYYCATENTPHYASHGYWGQGTQVTVSS	high polyreactivity
QVQLVESGGGLVQAGGSLRLSCAASGFTFRWNAMGWYRQAPGKERELVAAITNDDSTYYADSVKGRFTISRDNAKNTVYLQMNSLKPEDTAVYYCNADLTQYDAGFDYWGQGTQVTVSS	low polyreactivity
QVQLVESGGGLVQAGGSLRLSCAASGFTFRWNGMGSYRQAPGKERELVAAISYDGTGTYYADSVKGRFTISRDNAKNTVYLQMNSLKPEDTAVYYCAKTYRDDTSLSGFDSWGQGTQVTVSS	high polyreactivity
QVQLVESGGGLVQAGGSLRLSCAASGFTFRWYAMGWYRQAPGKERELVAAISSGGGSTYYADSVKGRFTISRDNAKITVYLQMNSLKPEDTAVYYCNSRGTRIASGHYYWGQGTQVTVSS	high polyreactivity
QVQLVESGGGLVQAGGSLRLSCAASGFTFRWYAMGWYRQAPGKERELVAAITGSGGSTYYADSVKGRFTISRDNAKNTVYLQMNSLKPEDTAVYYCNRYGVRYYRYDYWGQGTQVTVSS	high polyreactivity
QVQLVESGGGLVQAGGSLRLSCAASGFTFRWYAMGWYRQAPGKERELVASISRRGGSTYYADSVKGRFTISRDNAKNTVYLQMNSLKPEDTAVYYCAADYYDYWGQGTQVTVSS	high polyreactivity
QVQLVESGGGLVQAGGSLRLSCAASGFTFRWYDMGWYRKAPGKERELVAAIDASDGSTYYADSVKGRFTISRDNAKNTVYLLMNSLKPEDTAVYYCAAEDYQPYFYLYWYDYWGQGTQVTVSS	high polyreactivity
QVQLVESGGGLVQAGGSLRLSCAASGFTFRWYTMGWYRQAPGKERELVASINWSTGTPYYADSVKGRFTISRDNAKNTVYLQMNSLNPEDTAVYYCNARFRGRVYDRFGYRGQGTQVTVSS	high polyreactivity
QVQLVESGGGLVQAGGSLRLSCAASGFTFRYNAMGWYRQAPGKERELVAAITYRGGSTYYADSVKGRFTISRDNAKNTVYLQMNSLKPEDTAVYYCAAVGDLWGYYWGQGSQVTVSS	low polyreactivity
QVQLVESGGGLVQAGGSLRLSCAASGFTFRYNDMGWYRQAPGKERELVAVISSDGTTNYADSVKGRFTISRDNAKNTVYLQMNSLKPEDTAVYYCAAWEFRGNAYYVYAFDYWGQGTQVTVSS	low polyreactivity
QVQLVESGGGLVQAGGSLRLSCAASGFTFRYYAKGWYRQAPVKERELVARISRGGNTYYADSVKGRLTISRDNAKNTVYLHMNSLKPEDTAVYYCAVDLTRTLSGMDYWGQGTQVTVSS	high polyreactivity
QVQLVESGGGLVQAGGSLRLSCAASGFTFRYYAMGCYRQAPGKVRELVAAITGSGTRTYYADSVKGRFTISRDNAKNTVYLQMNSLKPEDTALYYCNAPRQPRWFDYWGQGTQVTVSS	high polyreactivity
QVQLVESGGGLVQAGGSLRLSCAASGFTFRYYAMGSYRQAPGKERELVAAISAGGGSTYYADSVKGRFTISRDNAKNTVYLQMNSLKPEDTAVYYCAAAGARPGYDYWGQGTQVTVSS	high polyreactivity
QVQLVESGGGLVQAGGSLRLSCAASGFTFRYYAMGWSRQAPGKERELLAAITGRGGSTYYADSVKGRFTISRDNAKNTVYFQMNSLNPEDTAVSFCAARFTRVYAQVRNDYWGQGTQVTVSS	high polyreactivity
QVQLVESGGGLVQAGGSLRLSCAASGFTFRYYAMGWYRPAPGKERELVAAISSGGRTNYADSVKGRFTISRDNAKNTVYLQMNSLKPEDTAVYYCATASRRGDPRLRFYYWGQGTQVTVSS	high polyreactivity
QVQLVESGGGLVQAGGSLRLSCAASGFTFRYYAMGWYRQAPGKEREFVAAIRSSGTTTSYADSVKGRFTISRDNEKNTVYLQMNSLKPEDTAVYYCAAGYFGPQQYYYWGQGTQVTVSS	high polyreactivity
QVQLVESGGGLVQAGGSLRLSCAASGFTFRYYAMGWYRQAPGKERELVAAISSGGSTYYADSVKGRFTISRDNAKNTVYLQMNSLKPEDTAVYYCATYLAEYGYWGQGTQVTVSS	high polyreactivity
QVQLVESGGGLVQAGGSLRLSCAASGFTFRYYAMGWYRQAPGKERELVASISGTGGRTYADSVKGRFTISRDNAKNTVYLQMNSLKPEDTAVYYCAAWSYAYYYRLRYVSHDYWGQGTQVTVSS	high polyreactivity
QVQLVESGGGLVQAGGSLRLSCAASGFTFRYYAMGWYRQAPGKERELVASITSGGSTNYADSVKGRFTISRDNAKNTVYLQMNSLKPEDTAVYYCAAQPYKGTGYDYWGQGTQVTVSS	high polyreactivity

Sequence	polyreactivity (PSR sort gate)
QVQLVESGGGLVQAGGSLRLSCAASGFTFRYYAMGWYRQAPGKERELVATITSGGRTYYADSVKGRFTISRDNAKNTVYLQMNSLKPEDTAVYYCAADVWYVRTKYGYDYWGQGTQVTVSS	high polyreactivity
QVQLVESGGGLVQAGGSLRLSCAASGFTFRYYVMGWYRQAPGKERELVATITWGGGSTYYADSVKGRFTISRDNAKNTVYLQMNSLKPEDPAVYYCAASLKWGRGVLARVLWYNYWGQGTQVTVSS	low polyreactivity
QVQLVESGGGLVQAGGSLRLSCAASGFTFSAYAIGWYRQAPGKETELVAAITLRGGSTYYADSVKGRFTISRDNAKNTVYLQMNSLNPEDTAVYYCAAERIYVAYDYWGQGTQLTVSS	low polyreactivity
QVQLVESGGGLVQAGGSLRLSCAASGFTFSAYTMGWYRQAPGKERELVAAINWSAANTYYADSVKGRFTISRDNAKNTVSLQMNSLKPEDTAVYYCNAEDDYTYDRSFGGYKYDYWGQGTQVTVSS	low polyreactivity
QVQLVESGGGLVQAGGSLRLSCAASGFTFSAYTMGWYRQAPGKESELVAAINWSGANTYYADSVKGRFTISRDNAKNTVYLQMNSLKPEDTAVYFCNAEDDYTYDRSFGGYKYDYWGQGTQVTVSS	low polyreactivity
QVQLVESGGGLVQAGGSLRLSCAASGFTFSDNAMGWYRQAPGKERELVAAISRSGGNTHYADSVKGRFTISRDNAKNTVFLQMNSLKPEDTAVYYCAARPPGGYLYDYWGQGTQVTVSS	high polyreactivity
QVQLVESGGGLVQAGGSLRLSCAASGFTFSDYAMGWYRQAPGKDRELVATISNGDSPYYADSVKGRFTISRDNAKNTVYVQMNSLKPVDTAVNYCATDQPYGADPSNDFDYWGQGTQVTVSS	low polyreactivity
QVQLVESGGGLVQAGGSLRLSCAASGFTFSFYAMGWYRQAPGKERELVASISDSDGITFYADSVKGSFTISRDNAKNTVYLPMKSLKPEDTAVYYCAADVAIAIPFSYDYWGQGTQVTVSS	low polyreactivity
QVQLVESGGGLVQAGGSLRLSCAASGFTFSIYAMGWSRQAPGKERELVAAIRSSTASTYYADSVKGRFTISRDNAKNTVYLQMNSMKPEDTAVYYCAADTYRTRHIGVKFAFNSWGQGTQVTVSS	high polyreactivity
QVQLVESGGGLVQAGGSLRLSCAASGFTFSIYAMGWYRHAPGKERELVAAINWSGGSTYYADSVKGRFTISRDNAKNTVYLQMNSLKPEDTAVSYCATEATYGGGPGYEYWGQGTQVTVSS	low polyreactivity
QVQLVESGGGLVQAGGSLRLSCAASGFTFSIYAMGWYRQAPGKERELVAAISYRGTSTYYADSVKGRFTISRDNAKNTVYLQMNSLKPEDTAVYYCNKVSSPFVYTVYYWGQGTQVTVSS	high polyreactivity
QVQLVESGGGLVQAGGSLRLSCAASGFTFSKYTMGWYRPAPGKERELVAAITSGGSTNYADSVKGRFTISRDNAKNTVYLQMNSLKPEDTAVYYCNKRHIAHNGVGAGLELDYWGQGTQVTVSS	low polyreactivity
QVQLVESGGGLVQAGGSLRLSCAASGFTFSKYTMGWYRQAPGKERELVAAITSGGSTNYADSVKGRFTISRDNAKNTVYLQMNSLKPEDTAVYYCNKRHIAHNAVGAGLELDYWGQGTQVTVSS	low polyreactivity
QVQLVESGGGLVQAGGSLRLSCAASGFTFSLYAMGWYRQAPGKERELVASIDSDGVSTYYADSVKGRFTISRDNAKNTVYLQMNSLKPEDTAVYYCAADFWWGYISGPVRGRGYYWGQGTQVTVSS	low polyreactivity
QVQLVESGGGLVQAGGSLRLSCAASGFTFSLYAMGWYRQAPGKEWEVVAAISSRGGTTYYADSVKGRFTISRDNAKNTVYLQMNILKAEDTAVYYCAARYVYTRSAFDYWGQGTQVTVSS	high polyreactivity
QVQLVESGGGLVQAGGSLRLSCAASGFTFSLYDMGWYRQAPGKERELVADINGSGGSTYYSDSVKGRFTISRDNAKYTVYFQMNSLKPEDTAVYYCAAGPPSRWWYFVDYGYWGQGTQVTVSS	high polyreactivity
QVQLVESGGGLVQAGGSLRLSCAASGFTFSNNVMGWYREAPGKERELVAAISRRGGSTYYADSVKGRFTISRDNAKNTVYLQMNSLKPEDTAVYYCAATYPYYVDTSPGKDDHWRQGTQVTVSS	high polyreactivity
QVQLVESGGGLVQAGGSLRLSCAASGFTFSNYAMGWYRQAPGKERELVAAISWSGGSTYYADSVKGRFTISRDNAKNTVYLQMNSLKPEDTAVYYCNVLARPPYYKTRVNSPRSDYWGQGTQVTVSS	high polyreactivity
QVQLVESGGGLVQAGGSLRLSCAASGFTFSPYAMGGYRKAPGKERELVAAISSSGGSTYYADSVKGRFTISRDNAKNTVYLQMNSLKPEDTAVYYCATQGTRRPGKFYYWGQGTQVPVSS	high polyreactivity
QVQLVESGGGLVQAGGSLRLSCAASGFTFSRNVMGWYRQAPGKERELVADITLSGASTYYADSVKARFTISRDNAKNTVYLQMNSLKPEDTSVYSCAADPYHWRWGWRHDYWGQGTQVTVSS	low polyreactivity
QVQLVESGGGLVQAGGSLRLSCAASGFTFSRNVMGWYRQAPGKERELVADITLSGASTYYADSVKGRFTISRDNAKNTVYLQMNSLKPEDTAVYYCAADPYHWRCGWRHDYWGQGTQVTVSS	low polyreactivity
